# Measurements as given in patent publication US20260242735A1 (UNIVERSIT T BASEL, published 2026).
# B1: Refmab #3 (antibody, human IgG1, V domains shown)
# VH: QVQLVQSGAEVKKPGSSVKVSCKASGYTFTDYNMHWVRQAPGQGLEWIGYIYPYNGGTGYNQKFKSKATITADESTNTAYMELSSLRSEDTAVYYCARGRPAMDYWGQGTLVTVSS
# VL: DIQMTQSPSSLSASVGDRVTITCRASESVDNYGISFMNWFQQKPGKAPKLLIYAASNQGSGVPSRFSGSGSGTDFTLTISSLQPDDFATYYCQQSKEVPWTFGQGTKVEIK
# notes: Tested in IgG format; human IgG1 Fc silent (PG-LALA)
# B2: Refmab #1 (antibody, human IgG1, V domains shown)
# VH: EVQLVQSGAEVKKPGSSVKVSCKASGYTITDSNIHWVRQAPGQSLEWIGYIYPYNGGTDYNQKFKNRATLTVDNPTNTAYMELSSLRSEDTAFYYCVNGNPWLAYWGQGTLVTVSS
# VL: DIQLTQSPSTLSASVGDRVTITCRASESLDNYGIRFLTWFQQKPGKAPKLLMYAASNQGSGVPSRFSGSGSGTEFTLTISSLQPDDFATYYCQQTKEVPWSFGQGTKVEVK
# notes: Tested in IgG format; human IgG1 (Absolute Antibody hP67.6, Cat. No. Ab00283-10.0); also called hP67.6
# B3: Refmab #2 (antibody, human IgG1, V domains shown)
# VH: QVQLVQSGAEVKKPGSSVKVSCKASGGTFSDYAISWVRQAPGQGLEWMGRIIPILGVADYAQKFQGRVTITADKSTRTAYMELSSLRSEDTAVYYCARNWADAFDIWGQGTMVTVSS
# VL: DIQLTQSPSSLSASVGDRVTITCRASQGISSVLAWYQQKPGKAPKLLIYDASSLESGVPSRFSGSGSGTDFTLTISSLQPEDFATYYCQQFDSSITFGQGTKLEIK
# notes: as for B1
# B4: Refmab #4 (antibody, human IgG1, V domains shown)
# VH: QVQLVQSGAEVKKPGESVKVSCKASGYTFTNYGMNWVKQAPGQGLEWMGWINTYTGEPTYADKFQGRVTMTTDTSTSTAYMEIRNLGGDDTAVYYCARWSWSDGYYVYFDYWGQGTSVTVSS
# VL: DIVMTQSPDSLTVSLGERTTINCKSSQSVLDSSTNKNSLAWYQQKPGQPPKLLLSWASTRESGIPDRFSGSGSGTDFTLTIDSPQPEDSATYYCQQSAHFPITFGQGTRLEIK
# notes: as for B1
# Target: human CD33 P19K (human, UniProt P20138 18-364)
# Sequence (P20138 18-364 P19K limits assumed): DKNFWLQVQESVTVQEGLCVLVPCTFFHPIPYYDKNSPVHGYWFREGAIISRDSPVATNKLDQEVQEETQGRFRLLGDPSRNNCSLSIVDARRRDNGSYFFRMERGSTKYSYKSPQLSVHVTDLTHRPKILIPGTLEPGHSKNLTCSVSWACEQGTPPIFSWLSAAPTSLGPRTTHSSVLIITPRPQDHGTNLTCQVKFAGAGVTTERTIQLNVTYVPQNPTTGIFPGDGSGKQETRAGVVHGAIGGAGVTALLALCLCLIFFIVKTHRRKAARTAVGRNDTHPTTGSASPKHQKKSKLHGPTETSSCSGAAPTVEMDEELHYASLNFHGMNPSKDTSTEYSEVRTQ
# Assay: flow cytometry, mutant on cells, IgG
# Procedure: (§1) An alanine scan on human CD33 was performed to the determine the residues on CD33 that are involved in binding to the antibodies investigated. […] Briefly, a mutation library of CD33 was created by high-throughput, site-directed mutagenesis. Each residue was individually mutated to alanine, with alanine codons mutated to serine. The mutant library was arrayed in 384-well microplates and transiently transfected into HEK293-T. Following transfection, cells were incubated with the indicated antibodies (IgG or Fab) at concentrations pre-determined using an independent immunofluorescence titration curve on wild type CD33. […] Binding of each antibody to each mutant clone was determined in duplicates. For each point, background fluorescence was subtracted from the raw data, which were then normalized to antibody reactivity with wild type CD33.
# (§2) Antibodies were screened for binding to the human CD33 variants in IgG format. […] For each mutation, background fluorescence was subtracted from the raw data, which were then normalized to antibody reactivity with wild-type CD33.
row,Mean % WT Binding,Binder
1,1.8 % WT binding,B1
2,5.5 % WT binding,B2
3,115 % WT binding,B3
4,92 % WT binding,B4

# Target: human CD33 P19W (human, UniProt P20138 18-364)
# Sequence (P20138 18-364 P19W limits assumed): as the sequence (P20138 18-364 P19K limits assumed) above, with K2W counted along it
# Assay: flow cytometry, mutant on cells, IgG
# Procedure: as §1, §2
row,Mean % WT Binding,Binder
1,71.2 % WT binding,B1
2,73.8 % WT binding,B2
3,88.3 % WT binding,B3
4,82.8 % WT binding,B4

# Target: human CD33 N20G (human, UniProt P20138 18-364)
# Sequence (P20138 18-364 N20G limits assumed): as the sequence (P20138 18-364 P19K limits assumed) above, with K2P, N3G counted along it
# Assay: flow cytometry, mutant on cells, IgG
# Procedure: as §1, §2
row,Mean % WT Binding,Binder
1,3.6 % WT binding,B1
2,5.1 % WT binding,B2
3,105 % WT binding,B3
4,103 % WT binding,B4

# Target: human CD33 N20S (human, UniProt P20138 18-364)
# Sequence (P20138 18-364 N20S limits assumed): as the sequence (P20138 18-364 P19K limits assumed) above, with K2P, N3S counted along it
# Assay: flow cytometry, mutant on cells, IgG
# Procedure: as §1, §2
row,Mean % WT Binding,Binder
1,4.6 % WT binding,B1
2,45.5 % WT binding,B2
3,124 % WT binding,B3
4,91.7 % WT binding,B4

# Target: human CD33 N20P (human, UniProt P20138 18-364)
# Sequence (P20138 18-364 N20P limits assumed): as the sequence (P20138 18-364 P19K limits assumed) above, with K2P, N3P counted along it
# Assay: flow cytometry, mutant on cells, IgG
# Procedure: as §1, §2
row,Mean % WT Binding,Binder
1,1.7 % WT binding,B1
2,2.9 % WT binding,B2
3,98.5 % WT binding,B3
4,98.5 % WT binding,B4

# Target: human CD33 N20D (human, UniProt P20138 18-364)
# Sequence (P20138 18-364 N20D limits assumed): as the sequence (P20138 18-364 P19K limits assumed) above, with K2P, N3D counted along it
# Assay: flow cytometry, mutant on cells, IgG
# Procedure: as §1, §2
row,Mean % WT Binding,Binder
1,4.6 % WT binding,B1
2,0.7 % WT binding,B2
3,109 % WT binding,B3
4,91.3 % WT binding,B4

# Target: human CD33 N20K (human, UniProt P20138 18-364)
# Sequence (P20138 18-364 N20K limits assumed): as the sequence (P20138 18-364 P19K limits assumed) above, with K2P, N3K counted along it
# Assay: flow cytometry, mutant on cells, IgG
# Procedure: as §1, §2
row,Mean % WT Binding,Binder
1,0.8 % WT binding,B1
2,0.4 % WT binding,B2
3,103 % WT binding,B3
4,102 % WT binding,B4

# Target: human CD33 F21V (human, UniProt P20138 18-364)
# Sequence (P20138 18-364 F21V limits assumed): as the sequence (P20138 18-364 P19K limits assumed) above, with K2P, F4V counted along it
# Assay: flow cytometry, mutant on cells, IgG
# Procedure: as §1, §2
row,Mean % WT Binding,Binder
1,0.7 % WT binding,B1
2,1.5 % WT binding,B2
3,117 % WT binding,B3
4,118 % WT binding,B4

# Target: human CD33 W22T (human, UniProt P20138 18-364)
# Sequence (P20138 18-364 W22T limits assumed): as the sequence (P20138 18-364 P19K limits assumed) above, with K2P, W5T counted along it
# Assay: flow cytometry, mutant on cells, IgG
# Procedure: as §1, §2
row,Mean % WT Binding,Binder
1,1.3 % WT binding,B1
2,6.2 % WT binding,B2
3,103 % WT binding,B3
4,103 % WT binding,B4

# Target: human CD33 W22P (human, UniProt P20138 18-364)
# Sequence (P20138 18-364 W22P limits assumed): as the sequence (P20138 18-364 P19K limits assumed) above, with K2P, W5P counted along it
# Assay: flow cytometry, mutant on cells, IgG
# Procedure: as §1, §2
row,Mean % WT Binding,Binder
1,0.5 % WT binding,B1
2,2.7 % WT binding,B2
3,136 % WT binding,B3
4,104 % WT binding,B4

# Target: human CD33 W22Y (human, UniProt P20138 18-364)
# Sequence (P20138 18-364 W22Y limits assumed): as the sequence (P20138 18-364 P19K limits assumed) above, with K2P, W5Y counted along it
# Assay: flow cytometry, mutant on cells, IgG
# Procedure: as §1, §2
row,Mean % WT Binding,Binder
1,11.5 % WT binding,B1
2,98 % WT binding,B2
3,107 % WT binding,B3
4,86.1 % WT binding,B4

# Target: human CD33 W22Q (human, UniProt P20138 18-364)
# Sequence (P20138 18-364 W22Q limits assumed): as the sequence (P20138 18-364 P19K limits assumed) above, with K2P, W5Q counted along it
# Assay: flow cytometry, mutant on cells, IgG
# Procedure: as §1, §2
row,Mean % WT Binding,Binder
1,12.5 % WT binding,B1
2,99.5 % WT binding,B2
3,108 % WT binding,B3
4,111 % WT binding,B4

# Target: human CD33 W22E (human, UniProt P20138 18-364)
# Sequence (P20138 18-364 W22E limits assumed): as the sequence (P20138 18-364 P19K limits assumed) above, with K2P, W5E counted along it
# Assay: flow cytometry, mutant on cells, IgG
# Procedure: as §1, §2
row,Mean % WT Binding,Binder
1,1.4 % WT binding,B1
2,5 % WT binding,B2
3,107 % WT binding,B3
4,99.4 % WT binding,B4

# Target: human CD33 L23M (human, UniProt P20138 18-364)
# Sequence (P20138 18-364 L23M limits assumed): as the sequence (P20138 18-364 P19K limits assumed) above, with K2P, L6M counted along it
# Assay: flow cytometry, mutant on cells, IgG
# Procedure: as §1, §2
row,Mean % WT Binding,Binder
1,98.1 % WT binding,B1
2,94.4 % WT binding,B2
3,107 % WT binding,B3
4,92.7 % WT binding,B4

# Target: human CD33 Q24T (human, UniProt P20138 18-364)
# Sequence (P20138 18-364 Q24T limits assumed): as the sequence (P20138 18-364 P19K limits assumed) above, with K2P, Q7T counted along it
# Assay: flow cytometry, mutant on cells, IgG
# Procedure: as §1, §2
row,Mean % WT Binding,Binder
1,3.9 % WT binding,B1
2,81.4 % WT binding,B2
3,95.2 % WT binding,B3
4,97.2 % WT binding,B4

# Target: human CD33 Q24L (human, UniProt P20138 18-364)
# Sequence (P20138 18-364 Q24L limits assumed): as the sequence (P20138 18-364 P19K limits assumed) above, with K2P, Q7L counted along it
# Assay: flow cytometry, mutant on cells, IgG
# Procedure: as §1, §2
row,Mean % WT Binding,Binder
1,11.8 % WT binding,B1
2,80.9 % WT binding,B2
3,102 % WT binding,B3
4,97 % WT binding,B4

# Target: human CD33 Q24N (human, UniProt P20138 18-364)
# Sequence (P20138 18-364 Q24N limits assumed): as the sequence (P20138 18-364 P19K limits assumed) above, with K2P, Q7N counted along it
# Assay: flow cytometry, mutant on cells, IgG
# Procedure: as §1, §2
row,Mean % WT Binding,Binder
1,35.3 % WT binding,B1
2,86.5 % WT binding,B2
3,117 % WT binding,B3
4,107 % WT binding,B4

# Target: human CD33 Q24H (human, UniProt P20138 18-364)
# Sequence (P20138 18-364 Q24H limits assumed): as the sequence (P20138 18-364 P19K limits assumed) above, with K2P, Q7H counted along it
# Assay: flow cytometry, mutant on cells, IgG
# Procedure: as §1, §2
row,Mean % WT Binding,Binder
1,7.1 % WT binding,B1
2,95.3 % WT binding,B2
3,101 % WT binding,B3
4,93.2 % WT binding,B4

# Target: human CD33 Q24E (human, UniProt P20138 18-364)
# Sequence (P20138 18-364 Q24E limits assumed): as the sequence (P20138 18-364 P19K limits assumed) above, with K2P, Q7E counted along it
# Assay: flow cytometry, mutant on cells, IgG
# Procedure: as §1, §2
row,Mean % WT Binding,Binder
1,0.8 % WT binding,B1
2,17.1 % WT binding,B2
3,63.7 % WT binding,B3
4,69.7 % WT binding,B4

# Target: human CD33 Q24R (human, UniProt P20138 18-364)
# Sequence (P20138 18-364 Q24R limits assumed): as the sequence (P20138 18-364 P19K limits assumed) above, with K2P, Q7R counted along it
# Assay: flow cytometry, mutant on cells, IgG
# Procedure: as §1, §2
row,Mean % WT Binding,Binder
1,74.6 % WT binding,B1
2,95.1 % WT binding,B2
3,96.8 % WT binding,B3
4,98.6 % WT binding,B4

# Target: human CD33 V25I (human, UniProt P20138 18-364)
# Sequence (P20138 18-364 V25I limits assumed): as the sequence (P20138 18-364 P19K limits assumed) above, with K2P, V8I counted along it
# Assay: flow cytometry, mutant on cells, IgG
# Procedure: as §1, §2
row,Mean % WT Binding,Binder
1,113 % WT binding,B1
2,113 % WT binding,B2
3,114 % WT binding,B3
4,104 % WT binding,B4

# Target: human CD33 V25L (human, UniProt P20138 18-364)
# Sequence (P20138 18-364 V25L limits assumed): as the sequence (P20138 18-364 P19K limits assumed) above, with K2P, V8L counted along it
# Assay: flow cytometry, mutant on cells, IgG
# Procedure: as §1, §2
row,Mean % WT Binding,Binder
1,97.8 % WT binding,B1
2,99.2 % WT binding,B2
3,109 % WT binding,B3
4,95 % WT binding,B4

# Target: human CD33 T42P (human, UniProt P20138 18-364)
# Sequence (P20138 18-364 T42P limits assumed): as the sequence (P20138 18-364 P19K limits assumed) above, with K2P, T25P counted along it
# Assay: flow cytometry, mutant on cells, IgG
# Procedure: as §1, §2
row,Mean % WT Binding,Binder
1,18.6 % WT binding,B1
2,14.6 % WT binding,B2
3,12.7 % WT binding,B3
4,21.6 % WT binding,B4

# Target: human CD33 F43V (human, UniProt P20138 18-364)
# Sequence (P20138 18-364 F43V limits assumed): as the sequence (P20138 18-364 P19K limits assumed) above, with K2P, F26V counted along it
# Assay: flow cytometry, mutant on cells, IgG
# Procedure: as §1, §2
row,Mean % WT Binding,Binder
1,101 % WT binding,B1
2,101 % WT binding,B2
3,24.5 % WT binding,B3
4,81.5 % WT binding,B4

# Target: human CD33 F43L (human, UniProt P20138 18-364)
# Sequence (P20138 18-364 F43L limits assumed): as the sequence (P20138 18-364 P19K limits assumed) above, with K2P, F26L counted along it
# Assay: flow cytometry, mutant on cells, IgG
# Procedure: as §1, §2
row,Mean % WT Binding,Binder
1,111 % WT binding,B1
2,111 % WT binding,B2
3,45.8 % WT binding,B3
4,100 % WT binding,B4

# Target: human CD33 F44I (human, UniProt P20138 18-364)
# Sequence (P20138 18-364 F44I limits assumed): as the sequence (P20138 18-364 P19K limits assumed) above, with K2P, F27I counted along it
# Assay: flow cytometry, mutant on cells, IgG
# Procedure: as §1, §2
row,Mean % WT Binding,Binder
1,101 % WT binding,B1
2,100 % WT binding,B2
3,0.4 % WT binding,B3
4,98.7 % WT binding,B4

# Target: human CD33 F44L (human, UniProt P20138 18-364)
# Sequence (P20138 18-364 F44L limits assumed): as the sequence (P20138 18-364 P19K limits assumed) above, with K2P, F27L counted along it
# Assay: flow cytometry, mutant on cells, IgG
# Procedure: as §1, §2
row,Mean % WT Binding,Binder
1,80 % WT binding,B1
2,112 % WT binding,B2
3,100 % WT binding,B4

# Target: human CD33 F44P (human, UniProt P20138 18-364)
# Sequence (P20138 18-364 F44P limits assumed): as the sequence (P20138 18-364 P19K limits assumed) above, with K2P, F27P counted along it
# Assay: flow cytometry, mutant on cells, IgG
# Procedure: as §1, §2
row,Mean % WT Binding,Binder
1,2 % WT binding,B1
2,37.1 % WT binding,B2
3,0.4 % WT binding,B3
4,104 % WT binding,B4

# Target: human CD33 F44D (human, UniProt P20138 18-364)
# Sequence (P20138 18-364 F44D limits assumed): as the sequence (P20138 18-364 P19K limits assumed) above, with K2P, F27D counted along it
# Assay: flow cytometry, mutant on cells, IgG
# Procedure: as §1, §2
row,Mean % WT Binding,Binder
1,1.2 % WT binding,B1
2,98.9 % WT binding,B2
3,2 % WT binding,B3
4,110 % WT binding,B4

# Target: human CD33 H45Y (human, UniProt P20138 18-364)
# Sequence (P20138 18-364 H45Y limits assumed): as the sequence (P20138 18-364 P19K limits assumed) above, with K2P, H28Y counted along it
# Assay: flow cytometry, mutant on cells, IgG
# Procedure: as §1, §2
row,Mean % WT Binding,Binder
1,4 % WT binding,B1
2,80.3 % WT binding,B2
3,80.7 % WT binding,B3
4,79.2 % WT binding,B4

# Target: human CD33 P46S (human, UniProt P20138 18-364)
# Sequence (P20138 18-364 P46S limits assumed): as the sequence (P20138 18-364 P19K limits assumed) above, with K2P, P29S counted along it
# Assay: flow cytometry, mutant on cells, IgG
# Procedure: as §1, §2
row,Mean % WT Binding,Binder
1,3.5 % WT binding,B1
2,21.4 % WT binding,B2
3,102 % WT binding,B3
4,107 % WT binding,B4

# Target: human CD33 P46F (human, UniProt P20138 18-364)
# Sequence (P20138 18-364 P46F limits assumed): as the sequence (P20138 18-364 P19K limits assumed) above, with K2P, P29F counted along it
# Assay: flow cytometry, mutant on cells, IgG
# Procedure: as §1, §2
row,Mean % WT Binding,Binder
1,0.2 % WT binding,B1
2,1 % WT binding,B2
3,80.9 % WT binding,B3
4,42.4 % WT binding,B4

# Target: human CD33 P46R (human, UniProt P20138 18-364)
# Sequence (P20138 18-364 P46R limits assumed): as the sequence (P20138 18-364 P19K limits assumed) above, with K2P, P29R counted along it
# Assay: flow cytometry, mutant on cells, IgG
# Procedure: as §1, §2
row,Mean % WT Binding,Binder
1,1 % WT binding,B1
2,1 % WT binding,B2
3,64.7 % WT binding,B3
4,106 % WT binding,B4

# Target: human CD33 P46H (human, UniProt P20138 18-364)
# Sequence (P20138 18-364 P46H limits assumed): as the sequence (P20138 18-364 P19K limits assumed) above, with K2P, P29H counted along it
# Assay: flow cytometry, mutant on cells, IgG
# Procedure: as §1, §2
row,Mean % WT Binding,Binder
1,0.5 % WT binding,B1
2,0.7 % WT binding,B2
3,95.1 % WT binding,B3
4,69.5 % WT binding,B4

# Target: human CD33 I47G (human, UniProt P20138 18-364)
# Sequence (P20138 18-364 I47G limits assumed): as the sequence (P20138 18-364 P19K limits assumed) above, with K2P, I30G counted along it
# Assay: flow cytometry, mutant on cells, IgG
# Procedure: as §1, §2
row,Mean % WT Binding,Binder
1,107 % WT binding,B1
2,105 % WT binding,B2
3,3.7 % WT binding,B3
4,72.5 % WT binding,B4

# Target: human CD33 I47S (human, UniProt P20138 18-364)
# Sequence (P20138 18-364 I47S limits assumed): as the sequence (P20138 18-364 P19K limits assumed) above, with K2P, I30S counted along it
# Assay: flow cytometry, mutant on cells, IgG
# Procedure: as §1, §2
row,Mean % WT Binding,Binder
1,94.9 % WT binding,B1
2,105 % WT binding,B2
3,3.4 % WT binding,B3
4,90.1 % WT binding,B4

# Target: human CD33 P19L (human, UniProt P20138 18-364)
# Sequence (P20138 18-364 P19L limits assumed): as the sequence (P20138 18-364 P19K limits assumed) above, with K2L counted along it
# Assay: flow cytometry, mutant on cells, IgG
# Procedure: as §1, §2
row,Mean % WT Binding,Binder
1,117 % WT binding,B1
2,91.6 % WT binding,B2
3,111 % WT binding,B3
4,101 % WT binding,B4
